We go through 28 substances from publication PMC11354668.

Data set [1] has as its system ChromPure mouse IgG whole molecule (mouse). Nature of the data set: BLI. To be noted: BLI (Octet K2), SAX2.0 sensors loaded with 0.5 uM 5'-biotin DNA, IgG 0.0125-0.2 mg/mL, PBST-B, 30 C, pH not ….
Data set [2] addresses staphylococcal protein A (UniProt P38507). Nature of the data set: BLI; Octet K2; SPA biosensor (sensor type: ProA) with mouse IgG; SPA-IgG run as positive control; the IgG concentrations and times of this kinetic run are not described.

CAGTGGCTGA [2KN7]: the dissociation constant (Kd) in data set [1] (5'-biotin) stood at 1200 nM.
The same measure, in the same setting: the result for CCCCCCCCCCCCCCC [poly-C15] reads 1360 nM.
In data set [1] (5'-biotin (unmodified in SPA competition)), CGCCTAGGTTGGGTAGGGTGGTGGCG [6GN7] returned a Kd of 241 nM.
In data set [2], “ChromPure mouse IgG whole molecule (antibody)” yielded a Kd of 14.9 nM, a koff of 0.000716 s⁻¹ and a kon of 48000 M⁻¹ s⁻¹.
For the substance GCGGCGG [5FGP], in data set [1] (5'-biotin), the Kd amounted to 1510 nM. This counts as single-digit micromolar.
GGGGGGGGGG [poly-G10] displayed a Kd in data set [1] (5'-biotin) of 295 nM.
On the same count and under the same terms, the result for GGGGGGGGGGGGGGG [poly-G15] reads 273 nM.
The same measure, in the same setting: with GGGGTGGGTGGTGGGT [7XHD] the figure was 521 nM.
Still for that read-out and setting: with GGGGTTTTGGGG [1OTC] the figure was 414 nM; with GGGGTTTTGGGGT [1PH1-D], 881 nM.
Substance GGGTCGGTGCCTTA [6CRM] yielded a Kd in data set [1] (5'-biotin) of 1110 nM. This Kd and that of the substance before are within 1.5-fold of each other.
Same read-out and setting: the result for GGTTGGTGTGGTTGG [1RDE] reads 1090 nM; that for TGGGGTGTGG [2A0I], 872 nM.
Still for that read-out and setting: the result for TGTACAATGGG [3UGO] reads 793 nM.
TTTTTTTT [7JSI] had a Kd in data set [1] (5'-biotin) of 1830 nM.
On the same count and under the same terms, with TTTTTTTTTT [4OU6] the figure was 947 nM; with TTTTTTTTTT [poly-T10], 1490 nM.
The same measure, in the same setting: the result for TTTTTTTTTTTT [4JS5] reads 1730 nM; that for TTTTTTTTTTTTTTT [2CCZ], 909 nM; that for TTTTTTTTTTTTTTT [poly-T15], 909 nM.
The same measure, in the same setting: with TTTTTTTTTTTTTTTG [2C62] the figure was 3240 nM.
The substance TTTTTTTTTTTTTTTT [6SKO] yielded a Kd in data set [1] (5'-biotin) of 1070 nM.
On the same count and under the same terms, with TTTTTTTTTTTTTTTTT [7JSG] the figure was 1120 nM.
With “TTTTTTTTTTTTTTTTTTCCCTTTTTTTTTTTTTTTTTTT [5XRZ]”, the Kd in data set [1] (5'-biotin) was found to be 843 nM.
On the same count and under the same terms, the result for TTTTTTTTTTTTTTTTTTTT [poly-T20] reads 830 nM; that for TTTTTTTTTTTTTTTTTTTTTTTTT [4GNX], 2100 nM.
On the same count and under the same terms, the result for TTTTTTTTTTTTTTTTTTTTTTTTT [poly-T25] reads 1010 nM; that for “TTTTTTTTTTTTTTTTTTTTTTTTTTTTTT [poly-T30]”, 1430 nM.
